Measured values from the nanobody polyreactivity screen of Harvey et al. (2022).

assay: yeast display, Sf9 membrane polyspecificity reagent, FACS + sequencing; frameworks hold sequencing errors
Outline: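 In a synthetic yeast display library (Saccharomyces cerevisiae BJ5465), nanobody expression was induced with galactose for 36–48 hours. FACS gates were set low and high (top ~1%) using anti-HA fluorescence for expression and streptavidin fluorescence for binding of the Sf9 membrane reagent. Each polyreactivity label is drawn from the gate of origin.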

Row | Sequence | polyreactivity (PSR sort gate)
1 | QVQLVESGGRLVQAGGSLRLSCAASGRIFRDNAMGWYRQAPGKEMELVATIRSGTNTNYADSVKGRFTISRDYAKNTVYLQMNSLKPEDTAVYYCAADLWGSHYTEYRRYPYEYDYWGQGTQVTLSS | low polyreactivity
2 | QVQLVESGGRLVQAGGSLRLSCAASGRIFRYNAMGWYIQAPGKEREFVAAIRGSSSRTYYADSVKGRFTISRDNAKNTVYLQMNSLKPEDTAVYYCNAYVYYSHEDDYWGQGTQVTVSS | high polyreactivity
3 | QVQLVESGGRLVQAGGSLRLSCAASGRIFRYNAMGWYRQAPGKEREFVARISVITGRTYYADSVKGRFTISRDIAKNTVYLQMNSLKPEDTAVYYCAADAGYNYRYLLRGDYWGQGTQVTVSS | high polyreactivity
4 | QVQLVESGGRLVQAGGSLRLSCAASGRIFSRYAMGWYRPAPGKERELVATITWSGGSTYYADSVKGRFTISRDNAKNTVYLQMNSLKPEDTAVYYCNADVTYLYKMDYWGQGTQVTVSS | low polyreactivity
5 | QVQLVESGGRLVQAGGSLRLSCAASGRILRYYALGWYRQAPGKERELVASISRGGSTYYADSVKGRFTISRDNAKNTVYLQMNSLKPEDTAVYDCATEVRRSTREFGYWGQGTQVTVSS | high polyreactivity
6 | QVQLVESGGRLVQAGGSLRLSCAASGRTFGKYVMGWYRQAPGKERELVAAISRSGGGTYYADSVKGRFTISRDNAKNTVYLQMNSLKPEDTAVYYCAKGSRSNIFQDSYNYWGQGSQVTVSS | high polyreactivity
7 | QVQLVESGGRLVQAGGSLRLSCAASGRTFGYNTMGWYRPAPGKEREVVARITWSGASTYYADSVKGRFTISRDNAKNTVYLQMNSLKPEDTAVYYCNTADTVSWRSPYDYWGQGTQVTVSS | high polyreactivity
8 | QVQLVESGGRLVQAGGSLRLSCAASGRTFHRYAMGWYRQAPGKERELVAAITSSGGSTNYADSVKGRFTISRDNAKNTVYLQMNSLKPEDTAVYYCATVRYRYTSHPWSRGFDYWGQGTQVTVSS | low polyreactivity
9 | QVQLVESGGRLVQAGGSLRLSCAASGRTFPYNAMGWSRQAPRKERELVAAITWSGGSTYYADSVKGRFTISRDNAKNTVYLQMNSLKPEDTAVYYCAADEIYGYDYWGQGTQVTVSS | high polyreactivity
10 | QVQLVESGGRLVQAGGSLRLSCAASGRTIGLNGMGWYRQAPGTERELVAGISWSGGSTNYADSVKGRFTISRDNAKNTVYLQMNSLKPEDTAVYYCAADFVYYVVNDFGWSYAYEYWGQGTQVTVSS | low polyreactivity
11 | QVQLVESGGRLVQAGGSLRLSCAASGSIFKYYVMGWYRQAPGKERELVAAISSGGGSTYYADSVKGRFTISRDNAKNSVYLQMNSLKPEDTAVYYCNKKYRSRWQGPFDYWGQATQVTVSS | high polyreactivity
12 | QVQLVESGGRLVQAGGSLRLSCAASGSIFSYYAMGWYRQATGKERELVASISSAGSTNYADSVKGRFTISRDNAKNTVYLQMNSLKPEDTAVYYCNTDDDSSSTGYYSWGQGTQVTVSS | low polyreactivity
13 | QVQLVESGGRLVQAGGSLRLSCAASGSIFYGYTMGWYRQAPGKERELVATISGRGGSTYYADSVKGRFTISRDNAKTTVYLQMNSLKPEDTAVYYCNSGKYYYNYGFWGQGTQVTVSS | high polyreactivity
14 | QVQLVESGGRLVQAGGSLRLSCAASGSTFARNAMGWYRQAPGKERELVAAISSSGGRTYYADSVKGRFTISRDNAKNTVYLQMNSLKPEDTAVYYCAAAFSLGMYWGQGTQVTVSS | high polyreactivity
15 | QVQLVESGGRLVQAGGSLRLSCAASGSTFQYNAMGWYRQAPGKERELVAAISLSGGSTYYADSVKGRFTISRDNAKNRVYLQMNSLKPEDTAVYYCAARQWYRYKVRFDYWGQGTQVTVSS | high polyreactivity
16 | QVQLVESGGRLVQAGGSLRLSCAASGSTIYGYAMGWYRQAPGKERELVATIRSGGSTYYADSVKGRFTISRDNAKNTVYLQMNCLIPEDTAVYYCAAKRWRGYGGGYSWGQGTQVTVSS | high polyreactivity
17 | QVQLVESGGRLVQAGGSLRLSCAASGSTLFAYAMGSYRQAPGKETELVASISSGGNTNYADSVKGRFTISRDNSKNSVYLQMYSLKPEDTAVYYCNAGVPYHYPSYTYLYYYWGQGTQVTVSS | low polyreactivity
18 | QVQLVESGGRLVQAGGSLRLSCAASGYIFFHYSRGWYRQAPGTERELVAANTSGGSTNYADSVKGRFTMSRDNAKNTDYLQMNSLKPEDTAVYYCAARGWINSKRLYALWGFDYWGQGTQVTVSS | low polyreactivity
19 | QVQLVESGGRLVQAGGSLRLSCAPSGIILSLYAMGWYRQAPGKVRELVATIRFSGVSTYYADSVKGRFTISRDNAKNTLYLQLTSLKPEDTAVYYCNKHLATTFTVSRFDYWGQGTQVTVSS | low polyreactivity
20 | QVQLVESGGRLVQAGGSLRLSCAPSGRIFQPNVMGWSRQAPGKERELVAAIRSGSSTYYADSVKGRFTISRDNAKYSVYLQMNSLKPEDTAVYYCAARLFLPGYTRVNYLGQGTQVTVSS | high polyreactivity
21 | QVQLVESGGRLVQAGGSLRLSCAPSGRTLGRYTMGWYRQAPGKERELVAGISSGGSTNYADSVKGRFTISRDNAKNTVYLQMNSLKPEDTAVYYCNSRGYSYGARYYYWGQGTQVTLSS | high polyreactivity

Row | Sequence | polyreactivity (PSR sort gate)
22 | QVQLVESGGRLVQAGGSLRLSCDASGRTSRRNAMGWYRQAPGKERELVAGITWRGGSTYYADSVKGRFTISRDNAKNTVYLQMNSLKPEDPEVYYCAAYTYPHEYDYWGQGTQVTVSS | low polyreactivity
23 | QVQLVESGGRLVQAGGSLRLSCDASGSIFAYYAMGGYRQAPGKERELVAAMCSGGGTYYADSVKGRFTISRDKAKTTVYLQMNSLKPEDTAVYYCAADGLWHIFYPGTGVDYWGQGTQVTVSS | low polyreactivity
24 | QVQLVESGGRLVQAGGSLRLSCPASGIIRGTNAMGGYRQAPGKERELVASITSGAGITYYADSVKGRFTISRDNAKNTVYLQMNSLKPEDTAVYYCNTYPYLWGQGTQVTVSS | low polyreactivity
25 | QVQLVESGGRLVQAGGSLRLSCPDSGSTFILNAMGWYRQAHGKERELVATISSSVTSTYYADSVKWRFTISRDHAKNTVYLQMNSLKPEDTAVYYCNADYYTTSYLQRFYHYGVEYDYLGQGTQVTVSS | low polyreactivity
26 | QVQLVESGGRLVQAGGSLRLSGAASGIIFRTNAMGWSRQAPGKEREFVAAISAGGTRTYYADSVKGRFTISRDYAKNTVYLQMNSLKPEDTAVYFCAAASGYDYWGQGTQVTVSS | high polyreactivity
27 | QVQLVESGGRLVQAGGSLRLSSAPSGSIFFWYAMGWYRQAPGKERELVAAITQRTGSTYYADSVKGRFTISRDNAKNTVYLQMNSLKPEDTAVYYCAAKRLRRSFTGNYWGQGTQVTVSS | high polyreactivity
28 | QVQLVESGGRLVQAGGSLRLTCAASGRIFSVNAMGWYRQAPGKERELVAAITPGASTNYADSVKGRFTISRDNAKNTVYLQMTSLKPEDTAVYYCAAGWVSFEDWVLGSYYEYDYWGQGTHVTVSS | low polyreactivity
29 | QVQLVESGGRLVQAGGSLRLTCAASGSTFIIYAIGWSRQAPGQERELVAASTSGGSTYYADSVKGRFRISRDNAKNSVYLQMNSLKQEDTAVYYCAARAWRGSFRDGYWGQGTQVTVSS | high polyreactivity
30 | QVQLVESGGRLVQAGGSLSLSCAASGIILLHYAMGWYRQAPGKERELVAAISSSGGRTYYADSVKGRFTISRDTAKITFYLQLTSLKPEDTAVYYCNTLTRLVYDGMGYWGQGTQVTVSS | high polyreactivity
31 | QVQLVESGGRLVQARGSLRLSCAPSGSIFYSNAMGSYRQAPGKEREFVAGIRSGGITNYADSVKGRFTISRDNAKNTVYLQMTSLKPEDTAVYYCAKLKDHGRYAYAFDYWRQGTQVTVSS | low polyreactivity
32 | QVQLVESGGRLVQAVGRLRLSCAASGFIFSRYAMRWYRPAPGKERELVAVISYSGGITYYADSVKGRFTISRDNAKNTVYLQMNSLKPEDTAVYYCAVGGTPRYSKYDYWGQGTQVTVSS | low polyreactivity
33 | QVQLVESGGRLVQEGGSLRLSCAASGSSLRSYAMGRYRQAPGKERELLAAISGSGDSTYYADSVKGRFTISRDNAKNTVYLQMNSLKPEDTAVYYCNAVFAFNGYVYWGQGTQVTVSS | low polyreactivity
34 | QVQLVESGGRLVQEGGSLRLSCAASGSTFKQYAMGWYRQAPGKEWELVAAISRSGSRTYYADSVKGRFTISRDNAKYTVYLQMNSLKPEDTAVYYCAAERRSTAGWLYDYWGQGTQVTVSS | high polyreactivity
35 | QVQLVESGGVIFQAGGILRLICAASGRIFARNAMGWYRQAPGKERELVAAISRSGGPTYYADSVKGRFTISRDNAKNSVYLQMNSLKTEDTGVYYCAADHYPWWAWEFDYWGQGTQVTVSS | low polyreactivity
36 | QVQLVESGGVLGQAGGSLRLSCAASGFIFSTYTMAWYRPAPGKERDLVAAISRSGGRTYYADSVKGRFTISRDNAKYTVYLQMNSLKPEDTAVYYCNAAKGGRYPDYDYWGQGTQVTVSS | high polyreactivity
37 | QVQLVESGGVLVQAGASLRLSCAASGFTFGFYGMGWYRQAPGKERELVARITWRSGSTYYADSVKGRFTISRDNAKNTVYLQMNSLKPEDTAVYYCNKVPSYDFLGMDYWGLGTQVTVSS | low polyreactivity
38 | QVQLVESGGVLVQAGASLRLSCAASGITFVTYAMGWYRQAPGKERELVADISSSGGSSYYADSVKGRFTISLDNAKNTVYLQMNSLKPEDTAVYYWAALATFYPEFDYWGQGTQVTVSS | low polyreactivity
39 | QVQLVESGGVLVQAGCSLRLSCASSGITFKYYAMGRYSQAPGKEREFVAYISARGGGTYYADSVKGRFTISRDNAKNSVYLQMNSLKPEDYAVYYFNAGLIYHQLYSNLYDYWGQGTQVTVSS | high polyreactivity
40 | QVQLVESGGVLVQAGGILRLSCAASGRIFYGNTMGWYRQAHGKERELVAAISRSGGSTYYADSVKGRFTSSRDNAKNTVYLQMNSLKPEDTAVYYCAAKRSWGYDYWGLGTQVTVSS | high polyreactivity
41 | QVQLVESGGVLVQAGGILRLSCAASGSIFYMYAMGWYRQAPGKERELVAAISRSGGRTYYADSVKGRFTISRDNAKNTVYLQMNSLKPEDTAVFYCAARDHYSTGGMKYWGQGTQVTVSS | high polyreactivity
